Article doi:10.1101/2021.01.13.426575

Target: DPP9, short isoform (DPP9S), co-expressed with CARD8 for cryo-EM (human), Q86TI2
Assay: cryo-EM structure
Settings: remark: other sources report otherwise

stoichiometry N: 2
B1: DPP9, short isoform (DPP9S), co-expressed with CARD8 for cryo-EM, Q86TI2-1 1-863 (enzyme)
chain: MATTGTPTADRGDAAATDDPAARFQVQKHSWDGLRSIIHGSRKYSGLIVNKAPHDFQFVQKTDESGPHSHRLYYLGMPYGSRENSLLYSEIPKKVRKEALLLLSWKQMLDHFQATPHHGVYSREEELLRERKRLGVFGITSYDFHSESGLFLFQASNSLFHCRDGGKNGFMVSPMKPLEIKTQCSGPRMDPKICPADPAFFSFINNSDLWVANIETGEERRLTFCHQGLSNVLDDPKSAGVATFVIQEEFDRFTGYWWCPTASWEGSEGLKTLRILYEEVDESEVEVIHVPSPALEERKTDSYRYPRTGSKNPKIALKLAEFQTDSQGKIVSTQEKELVQPFSSLFPKVEYIARAGWTRDGKYAWAMFLDRPQQWLQLVLLPPALFIPSTENEEQRLASARAVPRNVQPYVVYEEVTNVWINVHDIFYPFPQSEGEDELCFLRANECKTGFCHLYKVTAVLKSQGYDWSEPFSPGEDEFKCPIKEEIALTSGEWEVLARHGSKIWVNEETKLVYFQGTKDTPLEHHLYVVSYEAAGEIVRLTTPGFSHSCSMSQNFDMFVSHYSSVSTPPCVHVYKLSGPDDDPLHKQPRFWASMMEAASCPPDYVPPEIFHFHTRSDVRLYGMIYKPHALQPGKKHPTVLFVYGGPQVQLVNNSFKGIKYLRLNTLASLGYAVVVIDGRGSCQRGLRFEGALKNQMGQVEIEDQVEGLQFVAEKYGFIDLSRVAIHGWSYGGFLSLMGLIHKPQVFKVAIAGAPVTVWMAYDTGYTERYMDVPENNQHGYEAGSVALHVEKLPNEPNRLLILHGFLDENVHFFHTNFLVSQLIRAGKPYQLQIYPNERHSIRCPESGEHYEVTLLHFLQEYL
